Assay [1] concerns the target biotinylated murine PD-L1 (murine) (UniProt Q9EP73). The experiment in a line: blocking ELISA; murine PD-L1 binding to murine PD-1 (the blocked partner) in the presence of the IgG.
For assay [2], the target named is T1, biotinylated human PD-L1 (human, UniProt Q9NZQ7 19-239, limits assumed, biotinylated).
T1 construct: construct not described
The experiment in a line: blocking ELISA; biotinylated human PD-L1 pre-incubated with the Fab, then added to plate-coated human PD-1-Fc (the blocked partner); streptavidin-HRP/TMB.

The target of assay [3] is T2, human PD-L1 expressed on cells (human, UniProt Q9NZQ7 19-290).
T2 construct: whole, on cells; also called PD-L1 transfected HEK 293 cells; HEK293-6E cells transfected with human PD-L1
The experiment in a line: flow cytometry blocking assay; antibody mixed with human PD-1-PE (the blocked partner) and added to HEK293 cells transfected with human PD-L1. The text has this: Cells were washed 3 times with PBS and all data were collected on a BD FACSCanto II (BD Bioscience) and analysed on BD FACSDiva software (BD Bioscience).

Assay [4] has as its target T1, biotinylated human PD-L1. The assay can be described thus: avidity ELISA; biotinylated human PD-L1 (0.2 ug/mL) captured on a neutravidin plate, IgG titrated, anti-human Fc-HRP/TMB. The protocol:
Neutravidin was coated onto maxisorp plates at 2 μg/mL in coating buffer and incubated overnight at 4° C. The next day, plates were washed with wash buffer (PBS+0.05% Tween-20), and blocker with casein for 1 hour, at room temperature. Plates were then washed again using wash buffer. […] Plates were then washed again using wash buffer. The different antibodies were then added at various concentrations, and incubated for 1 hour at room temperature. Plates were then washed again using wash buffer. Anti-human Fc-HRP was then added and incubated for 1 hour at room temperature. Plates were then washed again using wash buffer. Finally, TMB was added to develop the ELISA; TMB conversion by HRP was stopped using 1M H—Cl.

Assay [5] concerns the target T1, biotinylated human PD-L1. The experiment in a line: ELISA; antibody coated on the plate at 2 ug/mL, biotinylated human PD-L1 titrated (x axis: Human PD-L1, nM), streptavidin-HRP/TMB. The method, then: Binding was measured by ELISA. Antibodies were coated onto maxisorp plates at 2 μg/mL in coating buffer and incubated overnight at 4° C. The next day, plates were washed with wash buffer (PBS+0.05% Tween-20), and blocker with casein for 1 hour, at room temperature. Plates were then washed again using wash buffer. […] Plates were then washed again using wash buffer. […] Plates were then washed again using wash buffer. Finally, TMB was added to develop the ELISA; TMB conversion by HRP was stopped using 1M H—Cl.

T2 sequence (Q9NZQ7 19-290): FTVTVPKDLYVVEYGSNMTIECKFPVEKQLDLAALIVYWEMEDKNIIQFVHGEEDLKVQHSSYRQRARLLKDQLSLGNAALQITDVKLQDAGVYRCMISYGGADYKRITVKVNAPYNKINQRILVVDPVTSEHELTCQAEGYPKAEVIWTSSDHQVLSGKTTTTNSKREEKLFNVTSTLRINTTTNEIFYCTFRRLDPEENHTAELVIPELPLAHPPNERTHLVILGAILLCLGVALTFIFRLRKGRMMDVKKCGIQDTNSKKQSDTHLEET
T1 sequence (Q9NZQ7 19-239 limits assumed): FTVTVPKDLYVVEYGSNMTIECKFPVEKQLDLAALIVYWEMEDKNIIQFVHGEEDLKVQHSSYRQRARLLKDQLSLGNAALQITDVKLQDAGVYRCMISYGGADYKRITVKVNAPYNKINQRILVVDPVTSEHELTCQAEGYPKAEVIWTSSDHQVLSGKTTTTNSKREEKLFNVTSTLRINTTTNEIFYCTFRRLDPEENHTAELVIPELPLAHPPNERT
Chain of biotinylated murine PD-L1 (murine) (Q9EP73 19-238 limits assumed): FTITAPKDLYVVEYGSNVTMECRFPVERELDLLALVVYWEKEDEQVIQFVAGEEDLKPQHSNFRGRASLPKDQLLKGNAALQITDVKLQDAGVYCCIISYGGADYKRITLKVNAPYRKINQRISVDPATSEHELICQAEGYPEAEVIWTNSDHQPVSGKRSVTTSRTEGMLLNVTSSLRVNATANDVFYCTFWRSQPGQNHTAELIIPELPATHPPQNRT

“commercially available anti-murine PD-L1 IgG antibody 10F.9G2 (BioLegend)”: the IC50 (read off the curve) in assay [1] came to 10 nM.

B1: anti-PD-L1 antibody clone A1, Fab format (Fab, V domains shown)
VH: QVQLQQSGAEVKKPGSSVKVSCKASGGTFSSYAISWVRQAPGQGLEWMGRIIPILGIANYAQKFQGRVTITADKSTSTAYMELSSLRSEDTAVYYCARGGSYGSLYAFDIWGQGTMVTVSS
VL: QSVLTQPPSVSAAPGQRVSISCSGRSSNIASHDVFWYQQLPGTAPKIVMYETNKRPWGIPDRFSGSKSGTSATLDIAGLQTGDEADYYCGAWDSGLTGMLFGGGTKVTVL
notes: Human Fab from a phage display library
B1: the “IC50 (read off the curve)” value in assay [2] is around 50 nM.

B2: anti-PD-L1 antibody clone C2, Fab format (Fab, V domains shown)
VH: QVQLQQSGAEVKKPGSSVKVSCKASGGTFSSYAISWVRQAPGQGLEWMGRIIPILGIANYAQKFQGRVTITADKSTSTAYMELSSLRSEDTAVYYCARGGSYGSLYAFDIWGQGTTVTVSS
VL: SYELTQPPSVSVAPGKTTRITCGGDNIGRKSVHWYQQRPGQAPLLLVYDDGDRPSGIPDRFSGSNSGNTATLTISGTQAMDEADYYCQAWDSTVVFGGGTRLTVL
notes: as for B1
Take B2: the “IC50 (read off the curve)” value in assay [2] is around 40 nM.

B3: anti-PD-L1 antibody H12_GL, IgG4 format (antibody, V domains shown)
VH: QVQLVQSGAEVKKPGSSVKVSCKASGGTFSSYAISWVRQAPGQGLEWMGRIIPILGIANYAQKFQGRVTITADKSTSTAYMELSSLRSEDTAVYYCARSGHGYSYGAFDYWGQGTLVTVSS
VL: QSVLTQPPSVSGAPGQRVTISCTGSSSNIGAGYDVHWYQQLPGTAPKLLIYGNSNRPSGVPDRFSGSKSGTSASLAITGLQAEDEADYYCQSYDSSLSGSYVVFGGGTKLTVL
notes: IgG4
B3: the “IC50 (read off the curve)” value in assay [3] is around 7 nM.

B4: anti-PD-L1 antibody H12_GL, IgG1 format (antibody, V domains shown)
VH: QVQLVQSGAEVKKPGSSVKVSCKASGGTFSSYAISWVRQAPGQGLEWMGRIIPILGIANYAQKFQGRVTITADKSTSTAYMELSSLRSEDTAVYYCARSGHGYSYGAFDYWGQGTLVTVSS
VL: QSVLTQPPSVSGAPGQRVTISCTGSSSNIGAGYDVHWYQQLPGTAPKLLIYGNSNRPSGVPDRFSGSKSGTSASLAITGLQAEDEADYYCQSYDSSLSGSYVVFGGGTKLTVL
notes: IgG1
Turning to B4, in assay [3], the “IC50 (read off the curve)” value was around 7 nM.

B5: anti-PD-L1 antibody H12, IgG1 format (antibody, V domains shown)
VH: EVQLVQSGAEVKKPGASVKVSCKASGGTFSSYAISWVRQAPGQGLEWMGRIIPILGIANYAQKFQGRVTITADKSTSTAYMELSSLRSEDTAVYYCARSGHGYSYGAFDYWGQGTL
VL: QSVLTQPPSVSGAPGQRVTISCTGSSSNIGAGYDVHWYQQLPGTAPKLLIYGNSNRPSGVPDRFSGSKSGTSASLAITGLQAEDEADYYCQSYDSSLSGSYVVFGGGTKLTVL
notes: IgG1
For the molecule B5, the “IC50 (read off the curve)” value in assay [3] was around 9 nM.

B6: anti-PD-L1 antibody H12, IgG4 format (antibody, V domains shown)
VH: EVQLVQSGAEVKKPGASVKVSCKASGGTFSSYAISWVRQAPGQGLEWMGRIIPILGIANYAQKFQGRVTITADKSTSTAYMELSSLRSEDTAVYYCARSGHGYSYGAFDYWGQGTL
VL: QSVLTQPPSVSGAPGQRVTISCTGSSSNIGAGYDVHWYQQLPGTAPKLLIYGNSNRPSGVPDRFSGSKSGTSASLAITGLQAEDEADYYCQSYDSSLSGSYVVFGGGTKLTVL
notes: IgG4
Regarding B6, the “IC50 (read off the curve)” value in assay [3] was around 9 nM.

B7: anti-PD-L1 antibody C4 (format not stated in the example) (antibody, V domains shown)
VH: QVQLQQSGAEVKKPGSSVKVSCKASGGTFSSYAISWVRQAPGQGLEWMGRIIPILGIANYAQKFQGRVTITADKSTSTAYMELSSLRSEDTAVYYCARGGYGGNSLYAFDIWGQGTMVTVSS
VL: QSVVTQPPSVSAAPGQKVTISCSGSSSNIGNNYVSWYQQLPGTAPKLLIYDNNERLSGIPDRFSGSKSGTSATLGISGLQTGDEADYYCGTWDSSLSVVVFGGGTKLTVL
notes: detected with anti-human Fc-HRP in the avidity ELISA, so it carried an Fc there
As for B7, the “EC50 (read off the curve)” value in assay [4] and in assay [5] was around 0.9 nM in each case.
